B1: Ang1: angiopoietin 1, Tie2 ligand (protein)
chain: SNQRRSPENSGRRYNRIQHGQCAYTFILPEHDGNCRESTTDQYNTNALQRDAPHVEPDFSSQKLQHLEHVMENYTQWLQKLENYIVENMKSEMAQIQQNAVQNHTATMLEIGTSLLSQTAEQTRKLTDVETQVLNQTSRLEIQLLENSLSTYKLEKQLLQQTNEILKIHEKNSLLEHKILEMEGKHKEELDTLKEEKENLQGLVTRQTYIIQELEKQLNRATTNNSVLQKQQLELMDTVHNLVNLCTKEGVLLKGGKREEEKPFRDCADVYQAGFNKSGIYTIYINNMPEPKKVFCNMDVNGGGWTVIQHREDGSLDFQRGWKEYKMGFGNPSGEYWLGNEFIFAITSQRQYMLRIELMDWEGNRAYSQYDRFHIGNEKQNYRLYLKGHTGTAGKQSSLILHGADFSTKDADNDNCMCKCALMLTGGWWFDACGPSNLNGMFYTAGQNHGKLNGIKWHYFKGPSYSLRSTTMMIRPLDF
B2: Ang2: angiopoietin 2, Tie2 ligand (protein)
chain: YNNFRKSMDSIGKKQYQVQHGSCSYTFLLPEMDNCRSSSSPYVSNAVQRDAPLEYDDSVQRLQVLENIMENNTQWLMKLENYIQDNMKKEMVEIQQNAVQNQTAVMIEIGTNLLNQTAEQTRKLTDVEAQVLNQTTRLELQLLEHSLSTNKLEKQILDQTSEINKLQDKNSFLEKKVLAMEDKHIIQLQSIKEEKDQLQVLVSKQNSIIEELEKKIVTATVNNSVLQKQQHDLMETVNNLLTMMSTSNSAKDPTVAKEEQISFRDCAEVFKSGHTTNGIYTLTFPNSTEEIKAYCDMEAGGGGWTIIQRREDGSVDFQRTWKEYKVGFGNPSGEYWLGNEFVSQLTNQQRYVLKIHLKDWEGNEAYSLYEHFYLSSEELNYRIHLKGLTGTAGKISSISQPGNDFSTKDGDNDKCICKCSQMLTGGWWFDACGPSNLNGMYYPQRQNTNKFNGIKWYYWKGSGYSLKATTMMIRPADF

Experiments:
[1] = system: MEC monolayers; experiment: FITC Transwell permeability assay; format: cell-based, human; settings: single agent alone; FITC-Dextran 40 kDa, three hours
Experimental: The integrity of these junctions is also important for the regulation of monolayer permeability by controlling the size of intercellular openings. The effect of the AXT107 on EC permeability was further investigated by the transendothelial diffusion of FITC-labeled dextran across MEC monolayers seeded onto permeable Transwell® substrates.
(§1) Human dermal microvascular endothelial cells (Lonza) were maintained at 37° C. and 5% CO2 in EBM-2MV medium (Lonza) and used between passages two through seven. Where applicable, cells were serum starved in EBM-2 medium (Lonza) with no supplements. For FITC-Dextran permeability assays phenol red-free media were used to avoid auto-fluorescence. AXT107 were manufactured at New England Peptide by […], lyophilized, and dissolved in 100% DMSO.
Transwell, twenty-four-well inserts (Corning) were coated with 7.5 μg/cm^2 FN1 for two hours at 37° C., aspirated, and then dried for thirty minutes at room temperature. Wells were then seeded with 7.5×10^4 MECs in 100 μl of EBM-2 media (without phenol red) and allowed to settle for thirty minutes at room temperature. 1 ml of EGM-2 media was then added to the bottom chamber and an additional 200 μl to the top chamber. The plate was incubated for twenty-four hours at 37° C. after which the media was aspirated and an additional 7.5×10^4 MECs were plated in each well as described above. After forty-eight hours at 37° C., the media was aspirated from both chambers and the cells were washed twice in dPBS containing Ca^2+ and Mg^2+, once with EBM-2 media (without phenol red) and serum starved in EBM-2 media applied to both chambers for two hours at 37° C. After this incubation, 100 μM AXT107 or an equivalent amount of DMSO vehicle was added and incubated for an additional ninety minutes. In the top chamber, the cells were then treated with 200 ng/ml Ang2, 100 ng/ml VEGFA, both, or PBS control and in the bottom chamber, the cells were then treated with 25 μg/ml FITC-Dextran (40 kDa MW). AXT107 was also added in both chambers to maintain a concentration of 100 μM. After three hours, 10 μl was removed from the top chamber of each well and mixed with 90 μl of water in a clear bottom, 96-well plate. Fluorescence values for each sample were calculated using a Perkin Elmer plate reader.

[2] = system: Tie2; experiment: Western blot of MEC lysates, Ang1/2 signaling: Tie2 phosphorylation; format: cell-based, human; settings: ligand alone, no AXT107
Experimental: To investigate the effects of the integrin inhibitor AXT107 on Tie2 signaling, confluent monolayers of microvascular endothelial cells (MECs) on fibronectin-coated dishes were treated with various concentrations of AXT107 followed by exposure to the Tie2 ligands Ang1 or Ang2.
as §1
For Ang1/2 signaling investigations, cell culture dishes (10 cm diameter) were coated with 5 μg/ml fibronectin (FN1; Sigma-Aldrich, St. Louis, Mo.) for two hours at 37° C. The FN1 solution was then removed by aspiration and 5×10^6 microvascular endothelial cells (MECs; Lonza, Walkersville, Md.) were plated in EGM-2MV media (Lonza) and cultured for forty-eight hours at 37° C. The cells were then serum starved for sixteen hours in serum-free EGM-2 base media (Lonza). AXT107 (0-100 μM, as indicated) was subsequently added to each culture and incubated for seventy-five minutes at 37° C. The cultures were then treated with 1 mM sodium vanadate (New England Biolabs, Ipswich, Mass.) for fifteen minutes to enhance the phospho-Tie2 signal followed by stimulation with 200 ng/ml angiopoietin (R&D Systems, Minneapolis, Minn.) for an additional fifteen minutes. The cells were then transferred to ice, washed twice with ice cold Dulbecco's phosphate-buffered saline (dPBS) containing Ca^2+ and Mg^2+, and collected by scraping in 500 μl of 1× Blue Loading Buffer (Cell Signaling, Danvers, Mass.). Lysate samples were then sonicated, boiled, and resolved by SDS-PAGE. Specific proteins were identified by Western blot, using the following primary antibodies: Cell Signaling—phospho-Tie2 (Y992) (Cat #: 4221), Tie2 (Cat #: 7403), phospho-Stat3 (Y705) (Cat #: 4113), Stat3 (Cat #: 4904), phospho-Akt (S473) (Cat #: 4058), Akt (Cat #: 9272), phospho-p44/42 MAPK (T202/Y204) (Cat #: 4370), p44/42 MAPK (Cat #: 4695); BD Transduction Laboratories—β1 integrin (Cat #: 610467); Millipore—α5 integrin (Cat #: AB1928) and detected with HRP-conjugated goat anti-rabbit and sheep anti-mouse secondary antibodies (GE healthcare).

Molecule	FITC-dextran diffusion across the monolayer, agent alone [1]	Tie2 phosphorylation by ligand alone [2]
VEGF [reference compound]	appeared to increase permeability (although non-significantly)	
B1		induced phosphorylation of Tie2
B2	influenced FITC-dextran diffusion across the monolayer	insignificant effects by itself

— patent publication US11674959B2, “Methods for identifying and preparing pharmaceutical agents for activating Tie1 and/or Tie2 receptors” (The Johns Hopkins University, priority 2017, dated 2023)
